{
  "source": "paper PMC3498290",
  "about": "“Mimicking Insect Communication: Release and Detection of Pheromone, Biosynthesized by an Alcohol Acetyl Transferase Immobilized in a Microreactor” (PLoS ONE, 2012)",
  "substrate": "CC/C=C/C=C\\CCCCCCCCO",
  "assay": "batch acetylation assay, Hanes-Woolf plot",
  "type": "biochemical, Acinetobacter baylyi",
  "settings": "free enzyme in batch, before immobilization; co-substrate acetyl-CoA (300 µM in the preliminary time course); alcohol 1.25 µM-1.3 mM",
  "data": [
    {"protein": "Acinetobacter wax synthase (atf, alcohol acetyl transferase; His6-tagged diacylglycerol acyl transferase) (Acinetobacter baylyi ADP1) (protein, His6-tagged, pET23a, E. coli Rosetta(DE3)pLysS; Ni-NTA and gel filtration; tag kept; plasmid from S. Uthoff (Muenster)) MRPLHPIDFIFLSLEKRQQPMHVGGLFLFQIPDNAPDTFIQDLVNDIRISKSIPVPPFNNKLNGLFWDEDEEFDLDHHFRHIALPHPGRIRELLIYISQEHSTLLDRAKPLWTCNIIEGIEGNRFAMYFKIHHAMVDGVAGMRLIEKSLSHDVTEKSIVPPWCVEGKRAKRLREPKTGKIKKIMSGIKSQLQATPTVIQELSQTVFKDIGRNPDHVSSFQAPCSILNQRVSSSRRFAAQSFDLDRFRNIAKSLNVTINDVVLAVCSGALRAYLMSHNSLPSKPLIAMVPASIRNDDSDVSNRITMILANLATHKDDPLQRLEIIRRSVQNSKQRFKRMTSDQILNYSAVVYGPAGLNIISGMMPKRQAFNLVISNVPGPREPLYWNGAKLDALYPASIVLDGQALNITMTSYLDKLEVGLIACRNALPRMQNLLTHLEEEIQLFEGVIAKQEDIKTAN", "values": [
      {"measurement": "Km", "value": 1.63, "unit": "µM"}
    ]}
  ]
}
